From patent US20220372168A1

Experiments:
[1] = biological target: Human FcγRIIIa (F176) (human) (UniProt P08637); experiment: SPR (Biacore T200), His-tagged FcγR captured on anti-penta-His chip, antibody injected
[2] = biological target: Human FcγRIIb (human) (UniProt P31994); experiment: as above
[3] = biological target: Human FcγRIIa (R131) (human) (UniProt P12318); experiment: as above
[4] = biological target: Human FcγRI (human) (UniProt P12314); experiment: as above
[5] = biological target: Human FcγRIIIb (human) (UniProt O75015); experiment: as above
[6] = biological target: Human FcγRIIa (H131) (human) (UniProt P12318); experiment: as above
[7] = biological target: Human FcγRIIIa (V176) (human) (UniProt P08637); experiment: as above
[8] = biological target: Human FcγRIIb (human) (UniProt P31994); experiment: SPR (Biacore T200), His-tagged FcγR captured on anti-penta-His chip, kinetic or steady-state fit
[9] = biological target: Human FcγRIIa (R131) (human) (UniProt P12318); experiment: as above
[10] = biological target: Human FcγRIIa (H131) (human) (UniProt P12318); experiment: as above

Sequence of Human FcγRIIa (H131) (human) (P12318 36-218 limits assumed): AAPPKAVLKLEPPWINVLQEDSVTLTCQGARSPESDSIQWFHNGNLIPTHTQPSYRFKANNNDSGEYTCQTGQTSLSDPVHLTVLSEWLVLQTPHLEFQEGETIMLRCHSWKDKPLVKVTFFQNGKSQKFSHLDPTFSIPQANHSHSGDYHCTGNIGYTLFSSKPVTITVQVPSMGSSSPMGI
Sequence of Human FcγRIIb (human) (P31994 46-217 limits assumed): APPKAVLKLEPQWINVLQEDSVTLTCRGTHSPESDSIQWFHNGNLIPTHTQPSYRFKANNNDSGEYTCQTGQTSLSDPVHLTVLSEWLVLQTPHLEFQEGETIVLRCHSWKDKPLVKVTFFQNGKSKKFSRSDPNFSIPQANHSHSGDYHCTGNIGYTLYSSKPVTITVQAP
Sequence of Human FcγRIIa (R131) (human) (P12318 36-218 H167R limits assumed): as the sequence (P12318 36-218 limits assumed) above, with H132R counted along it
Sequence of Human FcγRIIIa (F176) (human) (P08637 17-208 limits assumed): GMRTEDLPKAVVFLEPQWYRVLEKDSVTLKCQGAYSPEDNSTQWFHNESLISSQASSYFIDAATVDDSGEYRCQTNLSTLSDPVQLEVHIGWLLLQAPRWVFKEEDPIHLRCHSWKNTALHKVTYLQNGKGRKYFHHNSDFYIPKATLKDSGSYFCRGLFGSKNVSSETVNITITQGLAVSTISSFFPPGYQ
Sequence of Human FcγRIIIa (V176) (human) (P08637 17-208 F176V limits assumed): as the sequence (P08637 17-208 limits assumed) above, with F160V counted along it
Sequence of Human FcγRI (human) (P12314 16-288 limits assumed): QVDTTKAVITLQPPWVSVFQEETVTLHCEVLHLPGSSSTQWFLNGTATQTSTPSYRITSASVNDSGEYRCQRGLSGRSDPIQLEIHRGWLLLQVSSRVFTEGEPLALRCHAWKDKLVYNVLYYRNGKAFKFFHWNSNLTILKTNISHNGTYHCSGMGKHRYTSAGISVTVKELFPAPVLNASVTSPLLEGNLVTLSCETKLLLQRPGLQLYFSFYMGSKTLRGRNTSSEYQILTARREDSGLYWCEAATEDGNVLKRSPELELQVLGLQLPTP
Sequence of Human FcγRIIIb (human) (O75015 17-200 limits assumed): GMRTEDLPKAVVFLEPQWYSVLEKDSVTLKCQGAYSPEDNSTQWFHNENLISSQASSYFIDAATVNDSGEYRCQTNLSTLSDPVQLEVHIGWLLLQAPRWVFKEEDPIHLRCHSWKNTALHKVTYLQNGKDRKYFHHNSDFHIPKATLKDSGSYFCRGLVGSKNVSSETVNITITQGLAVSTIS

binding signal (RU) [1]: 6 RU
binding signal (RU) [2]: 226 RU
binding signal (RU) [3]: 340 RU
binding signal (RU) [4]: 36 RU
binding signal (RU) [5]: -8 RU
binding signal (RU) [6]: 419 RU
binding signal (RU) [7]: 34 RU
Kd [8]: 12300 nM
Kd [9]: 1320 nM
Kd [10]: 1610 nM
B1: mAb3 (antibody, part only; not given: variable domains, not shown: another chain or arm of the molecule)
Fc: ESKYGPPCPPCPAPPVAGPSVFLFPPKPKDTLMISRTPEVTCVVVDVSQEDPEVQFNWYVDGVEVHNAKTKPREEQFNSTYRVVSVLTVLHQDWLNGKEYKCKVSNKGLPSSIEKTISKAKGQPREPQVYTLPPSQEEMTKNQVSLTCLVKGFYPSDIAVEWESNGQPENNYKTTPPVLDSDGSFFLYSRLTVDKSRWQEGNVFSCSVMHEALHNHYTQKSLSLSLGK
